Consider six molecules from PMC8096230.

Data set [1] has as its target T1, GR DBD (human, UniProt P04150 412-506). The data set can be described thus: MST.
Data set [2] has as its target T1, GR DBD. The data set can be described thus: EMSA. In general terms: Mobility shift assays separate free from complexed probe on a gel.

T1 sequence (P04150 412-506): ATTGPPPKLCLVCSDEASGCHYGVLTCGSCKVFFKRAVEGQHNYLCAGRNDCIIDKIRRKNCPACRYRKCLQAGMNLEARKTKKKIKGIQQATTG

B1: GRE1 (Eif4ebp2 GBSe1) (dsDNA)
DNA 1: TGAGTCAGGACTGAGTGTTCTCACGG
DNA 2: CCGTGAGAACACTCAGTCCTGACTCA
As usually defined, the Kd is the free concentration of one partner at which half of the binding sites on the other are occupied at equilibrium, for simple one-to-one binding. High values mean lower affinity, low ones higher affinity. Molecule B1 came in with a Kd in data set [1] of 195 nM.

B2: GRE2 mut (dsDNA)
DNA 1: AGGCTGGGTATACAGAATGCCCTGCC
DNA 2: GGCAGGGCACTCTGTGTACCCAGCCT
With B2, in data set [2], the binding result is “no binding”.

B3: GRE (Gilz) / GREgilz (dsDNA)
DNA 1: TGAGTCAGAACATTGGGTTCCCACGG
DNA 2: CCGTGGGAACCCAATGTTCTGACTCA
For the molecule B3, in data set [1], the Kd is 154 nM.

B4: GRE2 (Eif4ebp2 GBSe2) (dsDNA)
DNA 1: AGGCTGGGTACACAGAGTGCCCTGCC
DNA 2: GGCAGGGCACTCTGTGTACCCAGCCT
In data set [1], B4 came in with a Kd of 204 nM.

B5: NSP (non-specific probe) (dsDNA)
DNA 1: TGGGCTGAGGCTGGGTGTGGCCCGAC
DNA 2: GTCGGGCCACACCCAGCCTCAGCCCA
For B5, the binding result in data set [2] is on record as “no binding”.

B6: GRE1 mut (dsDNA)
DNA 1: TGAGTCAGGATTGAGTATTCTCACGG
DNA 2: CCGTGAGAACACTCAGTCCTGACTCA
Regarding B6, in data set [2], the binding result was “no binding”.
